{"source": "patent US20230277625A1", "about": "(SIMCHA IL 18, published 2023)", "binders": {"B1": {"name": "SEQ ID NO: 61 (murine DR-IL-18 variant mCS2) (ligand)", "chain": "HFGRLHCTTAVIRNINDQVLFVDKRQPVFEDMTDIDQSASEPQTRLIIYAYGDSRARGKAVTLSVKDSKMSTLSCKNKIISFEEMDPPENIDDIQSDLIFFQKRVPGHNKMEFESSLYEGHFLACQKEDDAFKLILKKKDENGDKSVMFTLTNLHQS", "notes": "Engineered variant"}}, "key": {"[1]": {"target": "T1, Mouse IL-18BP (amino acids 31-194), biotinylated (mouse, UniProt Q9Z0M9 29-193, biotin on the AviTag (BirA ligase))", "T1 construct": "also called mIL-18BP", "T1 sequence": "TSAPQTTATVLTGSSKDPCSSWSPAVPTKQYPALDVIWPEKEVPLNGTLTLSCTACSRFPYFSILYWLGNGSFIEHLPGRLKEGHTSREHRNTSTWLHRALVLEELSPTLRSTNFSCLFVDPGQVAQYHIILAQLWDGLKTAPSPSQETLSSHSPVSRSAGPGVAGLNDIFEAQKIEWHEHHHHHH", "assay": "on-yeast binding isotherms; KD ratio relative to WT IL-18; yeast-displayed variant; ratio normalized to WT, from the 10 µM placeholder", "procedure": "(§1) Individual colonies of IL-18 yeast were grown overnight at 30° C. in SDCAA liquid media and induced in SGCAA liquid media for 1 day at 20° C. IL-18 display levels on yeast were verified by flow cytometry using an anti-cMyc tag antibody (anti-myc-PE; Cell Signaling Technologies). Receptor staining with biotinylated IL-18Rα (with or without IL-18R β) or biotinylated IL-18BP was performed in PBS supplemented with 0.5% BSA and 2 mM EDTA (PBE) on ice. All analysis was performed on a Sony SA3800 flow cytometer."}, "[2]": {"target": "T1, Mouse IL-18BP (amino acids 31-194), …", "assay": "SPR (Biacore T100), IL-18BP captured via biotin, IL-18 as analyte; SPR, soluble variant", "procedure": "(§2) Experiments were conducted using a Biacore T100 and carried out at 25° C. Biotinylated IL-18Rα or IL-18BP were immobilized onto a Biacore biotin capture chip (Series S CAP sensor chip, GE Healthcare) to yield an Rmax of ˜50 RU (IL-18Rα) or ˜10 RU (IL-18BP). Measurements were made with serial dilutions of the IL-18 variants in HEPES buffered Saline-P+buffer (10 mM HEPES pH 7.4, 150 mM NaCl, 0.005% surfactant P20). The surface was regenerated by three 60-sec injections of regeneration buffer (3/4 (v/v) 8M guanidine hydrochloride with 1/4 (v/v) 1M sodium hydroxide). Experiments were performed in multiple channels simultaneously for increased observations. All data were analyzed with the Biacore T100 evaluation software version 2.0 with a 1:1 Langmuir binding model."}, "[3]": {"target": "T1, Mouse IL-18BP (amino acids 31-194), …", "assay": "SPR, immobilized biotinylated mIL-18BP, mCS2 as analyte; traces stay at or below about 2 RU during the injection (0 to about 180 s) on a 0-40 RU axis", "procedure": "as §2"}, "[4]": {"target": "T1, Mouse IL-18BP (amino acids 31-194), …", "assay": "on-yeast binding isotherms; 10 µM used for NBD; yeast-displayed variant; ratio computed with 10 µM put in for NBD", "procedure": "as §1"}, "[5]": {"target": "T2, Mouse IL-18Rα ectodomain (amino acids 19-329), biotinylated (mouse, UniProt Q61098 19-329, biotin on the AviTag (BirA ligase))", "T2 construct": "range 19-329; Secreted from Expi293 cells (H7 signal peptide removed); also called mIL-18Rα; mIL18Ra", "T2 sequence": "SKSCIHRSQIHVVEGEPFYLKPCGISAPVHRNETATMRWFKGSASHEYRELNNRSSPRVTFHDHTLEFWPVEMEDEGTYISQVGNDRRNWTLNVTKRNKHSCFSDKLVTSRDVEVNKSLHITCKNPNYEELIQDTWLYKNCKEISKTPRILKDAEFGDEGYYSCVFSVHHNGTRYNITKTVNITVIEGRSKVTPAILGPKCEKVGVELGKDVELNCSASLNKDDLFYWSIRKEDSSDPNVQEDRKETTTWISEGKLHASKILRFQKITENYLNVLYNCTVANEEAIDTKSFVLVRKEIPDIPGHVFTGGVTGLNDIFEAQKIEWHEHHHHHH", "assay": "SPR"}, "[6]": {"target": "T1, Mouse IL-18BP (amino acids 31-194), …", "assay": "yeast binding isotherms and SPR; members per FIG. 11A legend", "procedure": "as §1, §2"}, "[7]": {"target": "T1, Mouse IL-18BP (amino acids 31-194), …", "assay": "SPR; KD(IL-18BP)/KD(IL-18Rα) normalized to WT IL-18"}, "[8]": {"target": "T1, Mouse IL-18BP (amino acids 31-194), …", "assay": "SPR; KD for IL-18BP over KD for IL-18Rα; SPR; ratio of two measured KD", "procedure": "as §2"}, "[9]": {"target": "T1, Mouse IL-18BP (amino acids 31-194), …", "assay": "SPR; KD ratio relative to WT IL-18; SPR; ratio normalized to WT", "procedure": "as §2"}, "[10]": {"target": "T2, Mouse IL-18Rα ectodomain (amino acids …)", "assay": "on-yeast binding isotherm (flow cytometry)", "procedure": "as §1"}, "[11]": {"target": "T2, Mouse IL-18Rα ectodomain (amino acids …)", "assay": "SPR (Biacore T100), receptor captured via biotin, IL-18 as analyte", "procedure": "as §2"}}, "data": [{"binder": "B1", "values": [{"measurement": "Dissociation Constant Ratio normalized to WT IL-18", "setting": "[1]", "result": "> 4690"}, {"measurement": "Kd", "setting": "[2]", "result": 10500, "unit": "nM"}, {"measurement": "Kd", "setting": "[3]", "result": "> 10000", "unit": "nM"}, {"measurement": "KD ratio IL-18BP/IL-18Rα", "setting": "[4]", "result": "> 885"}, {"measurement": "Kd", "setting": "[5]", "result": 0.08, "unit": "nM"}, {"measurement": "Kd", "setting": "[6]", "result": "> 1000", "unit": "nM"}, {"measurement": "IL-18 BP:Rα Dissociation Constant Ratio", "setting": "[7]", "result": "> 7.5e+07"}, {"measurement": "KD ratio IL-18BP/IL-18Rα", "setting": "[8]", "result": 133000}, {"measurement": "Dissociation Constant Ratio normalized to WT IL-18", "setting": "[9]", "result": "7.25e+07"}, {"measurement": "Kd", "setting": "[10]", "result": 11.3, "unit": "nM"}, {"measurement": "Kd", "setting": "[11]", "result": 0.079, "unit": "nM"}]}]}
